Data published in publication PMC2141752 (The Journal of Cell Biology, 1998).

B1: β–caveolin-1 (natural protein)
chain: MAEEMSEKQVYDAHTKEIDLVNRDPKHLNDDVVKIDFEDVIAEPEGTHSFDGIWKASFTTFTVTKYWFYRLLSALFGIPMALIWGIYFAILSFLHIWAVVPCIKSFLIEIQCISRVYSIYVHTFCDPFFEAVGKIFSNIRINMQKET
B2: canine caveolin-2 (natural protein)
chain: MGLETEKADVQLCMDDDAYSRHSAVDFGDLEQLADSGSDRDPRRLNSHLQVGFEDVIAEPVSTHSFDKVWICSHALFEVSKYVIYKFLTLLLAMPMAFAAGVLFATLSCLHIWIIMPFVKTCLMVLPSVQTIWKSVTDAVIAPLCSSVGRSFSSVSLQVSHD
modifications: phosphorylated at steady state (sites not given)
B3: α–caveolin-1 (natural protein)
chain: MSGGKYVDSEGHLYTVPIREQGNIYKPNNKAMAEEMSEKQVYDAHTKEIDLVNRDPKHLNDDVVKIDFEDVIAEPEGTHSFDGIWKASFTTFTVTKYWFYRLLSALFGIPMALIWGIYFAILSFLHIWAVVPCIKSFLIEIQCISRVYSIYVHTFCDPFFEAVGKIFSNIRINMQKET

Assays:
canine caveolin-2 = target: B2; assay: co-IP
α–caveolin-1 = target: B3; assay: co-IP

| Binder | ratio in the immunoprecipitate (canine caveolin-2) | ratio in the immunoprecipitate (α–caveolin-1) |
| --- | --- | --- |
| B1 | ~1 β–caveolin-1 per caveolin-2 | ~1 β–caveolin-1 per α–caveolin-1 |
| B2 |  | ~0.5 caveolin-2 per α–caveolin-1 |
| B3 | ~1 α–caveolin-1 per caveolin-2 |  |
